Assay results from patent publication US20260125457A1 (Janssen / Centocor, published 2026).
Numbering of substitutions follows the chain as printed.

T1: 22 amino acid CALRmut-specific peptide (acetylation of the terminal amino-group; C-terminal -OH group)
T1 construct: also called 22aa CALRmut peptide; CALRmut target peptide
T1 peptide: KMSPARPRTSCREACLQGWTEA

B1: CALRB118 (MP1016C Fab x CD3W245-HL-scFv, high affinity) (bispecific antibody, part only; not given: CD3 scFv arm and IgG1 constant regions, V domains shown, not shown: another chain or arm of the molecule; a dimerising Fc or GST; small tags and cut ends)
VL: DPVLTQTESPVSAAVGGTVTINCQASQSVYDDNNLAWYQQKPGQPPKRLIYPASTLASGVSSRFSGSGSGSQFTLTISDVQSDDAATYYCQGEFSCTSADCVAFGGGTEVVVK
VH: QEQLKESGGRLVTPGTPLTLTCTASGFSLSNYYMSWVRQAPGKGLEWIGGISSRAGTWYASWAKGRFTISGTSSTTMDLKITSPTTEDTATYFCARGLKIWGPGTLVTVSS
B2: CALRB119 (MP1016 Fab x CD3W245-HL-scFv, high affinity) (bispecific antibody, part only; not given: anti-CD3 scFv arm, constant regions, V domains shown, not shown: another chain or arm of the molecule; a dimerising Fc or GST; small tags and cut ends)
VL: B1 VL
VH: QEQLKESGGRLVTPGTPLTLTCTASGFSLSNYYMSWVRQAPGKGLEWIGGISSRAGTWYASWAKGRFTISGTSTTMDLKITSPTTEDTATYFCARGLKIWGPGTLVTVSS
B3: CALRB79 (MP1016 Fab x CD3W245-LH-scFv, medium affinity) (bispecific antibody, part only; not given: anti-CD3 scFv arm, constant regions, V domains shown, not shown: another chain or arm of the molecule; a dimerising Fc or GST; small tags and cut ends)
VL: B1 VL
VH: B2 VH
B4: CALRB78 (MP1016C Fab x CD3W245-LH-scFv, medium affinity) (bispecific antibody, part only; not given: anti-CD3 scFv arm, constant regions, V domains shown, not shown: another chain or arm of the molecule; a dimerising Fc or GST; small tags and cut ends)
VL: B1 VL
VH: B1 VH
B5: CALRB120 (MP1018C Fab x CD3W245-HL-scFv, high affinity) (bispecific antibody, part only; not given: CD3 scFv arm and IgG1 constant regions, V domains shown, not shown: another chain or arm of the molecule; a dimerising Fc or GST; small tags and cut ends)
VL: DVVMTQTPSSVSAAVGGTVTINCQASQSLYNNKNLAWYQQKPGQPPKLLIYYASALASGVSSRFKGSGSGTQFTLTISGVQSDDAATYYCQGEFNCNSADCNSFGGGTEVVVK
VH: QSVEESGGRLVTPGTPLTITCTVSGFSLSSYAMSWVRQAPGKGLEWIGVIDSGGTTYYATWAKSRFTISKTSSTKVALKITSPTTEDTATYFCARESYAGYDGYGHPIPYGMDPWGPGTLVTVSS
B6: CALRB81 (MP1018 Fab x CD3W245-LH-scFv, medium affinity) (bispecific antibody, part only; not given: anti-CD3 scFv arm, constant regions, V domains shown, not shown: another chain or arm of the molecule; a dimerising Fc or GST; small tags and cut ends)
VL: B5 VL
VH: QSVEESGGRLVTPGTPLTITCTVSGFSLSSYAMSWVRQAPGKGLEWIGVIDSGGTTYYATWAKSRFTISKTTKVALKITSPTTEDTATYFCARESYAGYDGYGHPIPYGMDPWGPGTLVTVSS
B7: CALRB80 (MP1018C Fab x CD3W245-LH-scFv, medium affinity) (bispecific antibody, part only; not given: CD3 scFv arm and IgG1 constant regions, V domains shown, not shown: another chain or arm of the molecule; a dimerising Fc or GST; small tags and cut ends)
VL: B5 VL
VH: B5 VH
B8: CALRB114 (MP1001 Fab x CD3W245-HL-scFv, high affinity) (bispecific antibody, part only; not given: CD3 scFv arm and IgG1 constant regions, V domains shown, not shown: another chain or arm of the molecule; a dimerising Fc or GST; small tags and cut ends)
VH: QEQLKESGGRLVTPGTPLTLTCAVSGFSLDIYGMSWVRQAPGKGLEWIGIIYIEGITYYANWAKGRFTISKTSSTTLELKMTSLTTEDTAMYFCVAGVGRIWGPGTLVTVSS
VL: YVMMTQTPSSVSAAVGGTVTINCQASQSLYNNNNLAWFQQKPGQPPKRLIYPASTLASGVSSRFKGSGSGTQFTLTISDVQSDDAATYFCLGEFSCSSADCYAFGGGTEVVVK
B9: CALRB74 (MP1001 Fab x CD3W245-LH-scFv, medium affinity) (bispecific antibody, part only; not given: CD3 scFv arm and IgG1 constant regions, V domains shown, not shown: another chain or arm of the molecule; a dimerising Fc or GST; small tags and cut ends)
VL: B8 VL
VH: B8 VH
B10: CALRB75 (MP1004 Fab x CD3W245-LH-scFv, medium affinity) (bispecific antibody, part only; not given: CD3 scFv arm and IgG1 constant regions, V domains shown, not shown: another chain or arm of the molecule; a dimerising Fc or GST; small tags and cut ends)
VL: DPMLTQTPSSVSAAVGGTVTINCQSSQSVYNNNWLSWLQQKPGQPPNRLIYDASKLESGVPSRFSGSGSGTQFTLTISGVQSDDAATYYCAGGFTGNVYTFGGGTEVVVK
VH: QEQLEESGGRLVTPGTPLTLTCKVSGIDLSNNAISWVRQAPGKGLEYIGVIGNTGDTYYASWAKGRFTISKTSSTTVDLKMTSLTTEDTATYFCVRGPPSYSNSVKNIWGPGTLVTISS
B11: CALRB76 (MP1007 Fab x CD3W245-LH-scFv, medium affinity) (bispecific antibody, part only; not given: CD3 scFv arm and IgG1 constant regions, V domains shown, not shown: another chain or arm of the molecule; a dimerising Fc or GST; small tags and cut ends)
VL: B10 VL with N22G, N31D, L38Y, E57A, Q81K, F94Y, T100S, E106M, V108E, V109I
VH: QQLEESGGRLVAPGTPLRLTCTVSGIDLSNNAVSWVRQAPGKGLEYIGVIGNTGTTYYANWAKGRFTISKTSSTTVDLKMTSLTTDDTATYFCVRGPPSYSNSVRNIWGPGTLVTVSS
B12: Clone 11 (Fab, V domains shown)
VH: B10 VH with E5K, T13A, T19R, K23T, I34V, D56T, S61N, E87D, I117V
VL: B10 VL with S10P, S25A, S36T, L38Y, E57A, S69F, S82C, G92A, F94W, T100S
notes: Rabbit/human chimeric Fab (human CH1, CK) on phage; also soluble Fab-AP
B13: CALRB116 (MP1007 Fab x CD3W245-HL-scFv, high affinity) (bispecific antibody, part only; not given: anti-CD3 scFv arm, constant regions, V domains shown, not shown: another chain or arm of the molecule; a dimerising Fc or GST; small tags and cut ends)
VH: B11 VH
VL: B10 VL with N22G, N31D, L38Y, E57A, Q81K, F94Y, T100S, E106M, V108E, V109I
B14: Clone 5 (Fab, V domains shown)
VH: B10 VH with E5K, T13A, T19R, K23T, I34V, D56T, S73T, E87D, I117V
VL: B10 VL with M3V, N22G, N31D, N32K, L38Y, N47S, S82C, T100G
notes: Rabbit/human chimeric Fab on phage; also Fab-AP
B15: CALRB115 (MP1004 Fab x CD3W245-HL-scFv, high affinity) (bispecific antibody, part only; not given: anti-CD3 scFv arm, constant regions, V domains shown, not shown: another chain or arm of the molecule; a dimerising Fc or GST; small tags and cut ends)
VH: B10 VH
VL: B10 VL
B16: CALRB117 (MP1010 Fab x CD3W245-HL-scFv, high affinity) (bispecific antibody, part only; not given: anti-CD3 scFv arm, constant regions, V domains shown, not shown: another chain or arm of the molecule; a dimerising Fc or GST; small tags and cut ends)
VH: B11 VH with Q2S, L3V, A12T, R18T, V33I, T55D, N60S, D86E, R105K, V116I
VL: B10 VL with N22G, N31D, N32K, L38Y, N47S, A85V, T100A
B17: CALRB77 (MP1010 Fab x CD3W245-LH-scFv, medium affinity) (bispecific antibody, part only; not given: anti-CD3 scFv arm, constant regions, V domains shown, not shown: another chain or arm of the molecule; a dimerising Fc or GST; small tags and cut ends)
VL: B10 VL with N22G, N31D, N32K, L38Y, N47S, A85V, T100A
VH: B11 VH with Q2S, L3V, A12T, R18T, V33I, T55D, N60S, D86E, R105K, V116I
B18: Clone 3 (Fab, V domains shown)
VH: B10 VH with E5K, T13A, T19R, K23R, I34V, D56S, S61N, T86A, E87D, I117V
VL: B10 VL with N22G, N31D, N32K, L38Y, N47S, S82C, T100A
notes: as for B12
B19: Clone 21 (Fab, V domains shown)
VH: B10 VH with E5K, T13A, T19R, K23T, I34V, D56T, S61N, E87D
VL: DVVMTQTPSSVSAAVGGTVTIGCQSSQSVYDKNWLSWYQQKPGQPPSRLIYDASKLESGVPSRFSGSGSGTQFTLTISGVQCDDAATYYCAGGFTGNVYAFGGGTMVEIK
notes: as for B12
B20: Clone 7 (Fab, V domains shown)
VH: B11 VH
VL: B19 VL with V2P, V3M, M4L, K32N, S47N, E57A, Q81K, F94Y, A100S
notes: as for B12

Assays:
[1] = molecular target: CALRdel52 (mutant calreticulin, 52 base pair deletion, Type 1) expressed with MPL on engineered cancer cells (UniProt P27797); test: cell-based or functional assay
[2] = molecular target: CALRins5 (mutant calreticulin, 5 base pair insertion, Type 2) expressed with MPL on engineered cancer cells (UniProt P27797); test: cell-based or functional assay
[3] = molecular target: T1, 22 amino acid CALRmut-specific peptide; test: phage ELISA; QC ELISA of soluble Fab-AP

Sequence of CALRdel52 (mutant calreticulin, 52 base pair deletion, Type 1) expressed with MPL on engineered cancer cells (P27797 other isoform, or with tags, fused parts or gaps mutant limits assumed): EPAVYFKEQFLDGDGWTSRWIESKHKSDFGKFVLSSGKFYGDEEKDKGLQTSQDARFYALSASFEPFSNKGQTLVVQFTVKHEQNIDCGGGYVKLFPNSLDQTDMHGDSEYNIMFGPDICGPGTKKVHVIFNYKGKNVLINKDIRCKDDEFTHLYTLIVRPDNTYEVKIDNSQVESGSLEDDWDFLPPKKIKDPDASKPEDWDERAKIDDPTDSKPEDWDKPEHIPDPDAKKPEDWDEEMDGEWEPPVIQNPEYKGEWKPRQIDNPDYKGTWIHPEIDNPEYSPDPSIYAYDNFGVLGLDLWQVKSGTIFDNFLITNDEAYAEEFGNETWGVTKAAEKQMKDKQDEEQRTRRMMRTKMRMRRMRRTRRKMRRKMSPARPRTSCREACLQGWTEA
Sequence of CALRins5 (mutant calreticulin, 5 base pair insertion, Type 2) expressed with MPL on engineered cancer cells (P27797 other isoform, or with tags, fused parts or gaps mutant limits assumed): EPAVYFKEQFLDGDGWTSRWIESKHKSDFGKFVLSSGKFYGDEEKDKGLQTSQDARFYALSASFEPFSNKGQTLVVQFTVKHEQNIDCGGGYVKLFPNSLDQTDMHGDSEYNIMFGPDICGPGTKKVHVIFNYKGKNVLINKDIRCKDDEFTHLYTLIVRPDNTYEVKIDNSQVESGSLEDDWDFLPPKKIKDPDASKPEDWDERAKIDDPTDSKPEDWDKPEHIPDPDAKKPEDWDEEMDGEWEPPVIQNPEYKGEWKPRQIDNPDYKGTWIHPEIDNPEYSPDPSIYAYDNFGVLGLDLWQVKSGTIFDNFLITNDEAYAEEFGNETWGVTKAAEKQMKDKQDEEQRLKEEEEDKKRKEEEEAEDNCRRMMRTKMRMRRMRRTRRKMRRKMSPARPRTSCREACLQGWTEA

Binder	Cytotoxicity EC50, K562 MPL CALRdel52 cells [1] [µg/mL]	Cytotoxicity EC50, OCI-M2 MPL CALRdel52 cells [1] [µg/mL]	Cytotoxicity EC50, K562 MPL CALRins5 cells [2] [µg/mL]	Cytotoxicity EC50, OCI-M2 MPL CALRins5 cells [2] [µg/mL]	binding result [3]
B1	0.0099	0.505	0.0157	0.0136	
B2	0.0064	0.504	0.0104	0.0225	
B3	0.0444	0.112	0.0416	0.0911	
B4	0.0393	0.0581	0.0648	0.0792	
B5	0.0077	0.0091	0.0119	0.0145	
B6	0.0457	0.0196	0.0509	0.0171	
B7	0.0401	0.0205	0.0434	0.0212	
B8	0.0112	0.0168	0.0163	0.0235	
B9	0.0521	0.0253	0.0304	0.0322	
B10	0.193	0.115	0.116	0.129	
B11	0.0633	0.0897	0.107	0.189	
B12					binds
B13	0.0243	0.0802	0.0953	0.0392	
B14					binds
B15	0.0348	0.0508	0.0541	0.0431	
B16	0.0403	0.0598	0.0741	0.0481	
B17	0.195	0.183	0.414	0.189	
B18					binds
B19					binds
B20					binds
